Measured values as given in patent US7704703B2, “Arf and Hdm2 interaction domains and the methods of use thereof” (St. Jude Children's Research Hospital, Inc., priority 2002, dated 2010).

Target: T1, Hdm2 210-275 (Homo sapiens, UniProt Q00987)
T1 construct: poly-His (thrombin cleavable, pET28a) (cleaved yes); made in house; host or cells: E. coli BL21(DE3)
Test: CD-based binding assay, induction of β-strand secondary structure with Hdm2 210-275
Method: Circular Dichroism. Spectra were recorded at 25° C. using an Aviv Model 62A DS circular dichroism spectropolarimeter (Aviv Instruments, Inc.) equipped with a thermoelectric temperature control unit. All samples were prepared in 10 mM Tris-HCl, pH 7.0 at 0.02-0.2 mM as determined by amino acid analysis. Spectra were recorded using 1 mm quartz cuvettes and reported spectra are the average of 10 scans over the range […]. Melting experiments were recorded in 10 mm quartz cuvettes with active stirring. The signal at 216 nm (β strand minimum) was used to monitor structural changes and the signal was averaged over 15 sec. The sample temperature was increased in 1° C. steps.
β-strand secondary structure forms when Arf and Hdm2 interact. […] This structural transition is induced when mArfN37 is added to an Hdm2 fragment and when an Hdm2 fragment is added to mArfN37. […] In contrast, the uncomplexed species elute at times consistent with monodisperse, conformationally extended polypeptides. Second, NMR resonances for ^15N-mArfN37 or ^15N-Hdm2 210-304 (and ^15N-Hdm2 210-275) are broadened beyond detection when an unlabeled form of the appropriate binding partner is added to the solution. At mArfN37:Hdm2 210-304 (or mArfN37:Hdm2 210-275) molar ratios that produce maximal β-strand secondary structure based on ellipticity at 200 nm using CD, resonances cannot be observed for the isotope-labeled component of Arf/Hdm2 mixtures. Further, the NMR spectra are consistent with slow exchange between the free and bound states.
Characterization of Arf Hdm2 assemblies. As discussed above, the addition of mArfN37 to Hdm2 210-304 results in the formation of supramolecular assemblies comprised of β-strands. Stepwise addition of sub-stoichiometric amounts of mArfN37 to Hdm2 210-304 increased β-strand secondary structure content as judged by the change in ellipticity at 200 nm using CD. […] The binding of mArfN37 to Hdm2 210-304, as monitored in this way, is saturable. Similar results were obtained when mArfN37 was mixed with the shorter fragment of Hdm2, Hdm2 210-275. Further, saturable binding is also observed when the Hdm2 fragments were added to an excess of mArfN37. These findings indicate that there are a limited number of binding sites for mArfN37 within Hdm2 210-304 and that discreet structures (containing β-strands) form when mArfN37 and Hdm2 210-304 (or 210-275) are mixed. […] Similar behavior is observed when mArfN37 binds Hdm2 210-275.

T1 sequence (Q00987 210-275): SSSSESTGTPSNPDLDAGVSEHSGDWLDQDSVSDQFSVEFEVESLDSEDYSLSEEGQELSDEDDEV

induction of β-strand secondary structure/assembly when mixed with Hdm2 210-275 (CD)	Substance
fail to induce β-strand assembly	mouse A2 (16-30): peptide corresponding to the second mouse Arf motif, residues 16-30 (RPLQERVFLVKFVRS)
fail to induce β-strand assembly	human A2 (16-30): peptide containing the second human Arf motif, residues 16-30 (GPPRVRVFVVHIPRL)
interaction	MVRRFLVTLRIRRA (listed as Homo sapiens) [human A1 (1-14), peptide of the first Arf motif of human p14^Arf, residues 1-14]
interaction	mouse A1 (1-14): peptide corresponding to the first mouse Arf motif, residues 1-14 (MGRRFLVTVRIQRA)
